Laboratory results reported in US20260159579A1 (Pfizer, published 2026).
Several values for one entry are separate records, joined by “and”; a condition that tells them apart may be missing. Equal values may be shown once.

Columns and labels:
[1] = target: Mouse Fc-mouse GDF15 (Mu IgG1Fc_Fxa_Mu GDF15) (mouse); assay: SPR BIAcore T200, 37C; Fc-GDF15 captured, monomeric Fc-Fab as analyte; average of runs
[2] = target: Mouse Fc-mouse GDF15 (Mu IgG1Fc_Fxa_Mu GDF15) (mouse); assay: SPR BIAcore T200, 37C; Fc-GDF15 captured, monomeric Fc-Fab as analyte
[3] = target: T1, Mouse Fc-cynomolgus monkey GDF15 (Mu IgG1Fc_Fxa_Cyno GDF15) (cynomolgus monkey); assay: SPR BIAcore T200, 37C; Fc-GDF15 captured, monomeric Fc-Fab as analyte; average of runs
T1 construct: Whole entry is the fusion: mouse IgG1 Fc, FXa site and linker, cynomolgus GDF15; described as dimeric; also called Murine dimeric IgG1 Fc-cyno GDF-15 with FXa cleavage site
T1 chain: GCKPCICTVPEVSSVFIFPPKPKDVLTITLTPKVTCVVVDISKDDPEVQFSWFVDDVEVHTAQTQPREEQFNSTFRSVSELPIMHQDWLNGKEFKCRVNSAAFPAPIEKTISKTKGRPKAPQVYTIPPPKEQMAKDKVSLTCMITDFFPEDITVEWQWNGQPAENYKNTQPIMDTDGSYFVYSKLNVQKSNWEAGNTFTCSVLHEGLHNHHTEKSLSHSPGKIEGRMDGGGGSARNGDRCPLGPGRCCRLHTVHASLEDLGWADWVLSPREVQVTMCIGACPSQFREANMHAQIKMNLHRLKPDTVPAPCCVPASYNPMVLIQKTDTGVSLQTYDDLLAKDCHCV
Description: (§1) To understand the KD value, without the avidity effect, of GDF15_001 binding to GDF15, monomeric Fc-Fab was produced and tested in the same assay used in Example 2. […] Mu IgG1Fc_Fxa_Hu GDF15, Mu IgG1Fc_Fxa_Mu GDF15 and Mu IgG1Fc_Fxa_Cyno GDF15 were captured onto three different flow cells of a CM4 sensorchip (catalogue number BR100534, GE Healthcare) surface using the Mouse Antibody Capture Kit (BR100838, GE Healthcare) according to the manufacturer's protocol. The running and sample buffer was 10 mM HEPES pH 7.4, 0.15M NaCl, 3 mM EDTA, 0.05% P-20 (HBS-EP+). The final capture levels of Mu IgG1Fc_Fxa_Hu GDF15, Mu IgG1Fc_Fxa_Mu GDF15 and Mu IgG1Fc_Fxa_Cyno GDF15 were 19 resonance units (RU), 22 RU and 19 RU respectively. Flow cell 1 was used as a reference flow cell. […] The dissociation was monitored for 1200 seconds and the surface was regenerated with 10 mM Glycine pH 1.7. Binding affinities and rate constants were determined by fitting the resulting sensorgram data to a 1:1 Langmuir model in BIAcore T200 Evaluation software version 2.0 (GE Healthcare).

[4] = target: T2, Mouse Fc-human GDF15 (Mu IgG1Fc_Fxa_Hu GDF15) (human); assay: as above
T2 construct: Whole entry is the fusion: mouse IgG1 Fc, FXa site and linker, mature human GDF15; described as dimeric; also called Murine dimeric IgG1 Fc-human GDF-15 with FXa cleavage site; control human GDF15
T2 chain: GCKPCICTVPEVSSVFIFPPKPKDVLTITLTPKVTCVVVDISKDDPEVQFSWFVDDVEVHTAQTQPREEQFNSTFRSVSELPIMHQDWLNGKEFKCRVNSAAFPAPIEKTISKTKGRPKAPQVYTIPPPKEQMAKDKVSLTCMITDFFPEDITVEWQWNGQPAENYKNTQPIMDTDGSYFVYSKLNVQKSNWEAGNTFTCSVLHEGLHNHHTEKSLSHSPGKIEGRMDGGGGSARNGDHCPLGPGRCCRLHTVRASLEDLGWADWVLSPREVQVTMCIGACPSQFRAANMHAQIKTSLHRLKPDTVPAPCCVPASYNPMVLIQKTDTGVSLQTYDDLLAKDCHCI
Description: as §1

[5] = target: Mouse Fc-mouse GDF15 (Mu IgG1Fc_Fxa_Mu GDF15) (mouse); assay: SPR BIAcore T200, 37C; Fc-GDF15 captured, monomeric Fc-Fab as analyte; murine GDF15 ligand (Mu IgG1Fc_Fxa_Mu GDF15), first run
[6] = target: T2, Mouse Fc-human GDF15 (Mu IgG1Fc_Fxa_Hu …); assay: SPR BIAcore T200, 37C; Fc-GDF15 captured, monomeric Fc-Fab as analyte; human GDF15 ligand (Mu IgG1Fc_Fxa_Hu GDF15), first run
Description: as §1

[7] = target: T1, Mouse Fc-cynomolgus monkey GDF15 (Mu …); assay: SPR BIAcore T200, 37C; Fc-GDF15 captured, monomeric Fc-Fab as analyte
Description: as §1

[8] = target: T2, Mouse Fc-human GDF15 (Mu IgG1Fc_Fxa_Hu …); assay: as above
Description: as §1

B1: monomeric GDF15_001 (CH23LS-GBT-GDF15_001) (Fab, V domains shown)
VH: QVQLVQSGAEVKKPGSSVKVSCKASGYTFSSYNIDWVRQAPGQGLEWMGGINPIFGTAFYNQKFQGRVTITADESTSTAYMELSSLRSEDTAVYYCAREAITTVGAMDHWGQGTLVTVSS
VL: EIVLTQSPATLSLSPGERATLSCRTSQSVHNYLAWYQQKPGQAPRLLIYDASTRADGIPARFSGSGSGTDFTLTISSLEPEDFAVYYCQQFWSWPWTFGQGTKVEIK
notes: Monovalent 'monomeric Fc-Fab' of GDF15_001 made to measure KD without avidity; also called CH23LS-GDF15_001; monomeric Fc-Fab
- Kd [1]: 1.97 nM
- koff [1]: 0.00326 s⁻¹
- kon [1]: 1.66e+06 M⁻¹ s⁻¹
- T½ min [2]: 3.39 min and 3.73 min
- koff [2]: 0.00341 s⁻¹ and 0.0031 s⁻¹
- kon [2]: 1.62e+06 M⁻¹ s⁻¹ and 1.7e+06 M⁻¹ s⁻¹
- Kd [3]: 0.062 nM
- koff [3]: 8.43e-05 s⁻¹
- kon [3]: 1.42e+06 M⁻¹ s⁻¹
- Kd [4]: 0.0213 nM
- koff [4]: 3.42e-05 s⁻¹
- kon [4]: 1.59e+06 M⁻¹ s⁻¹
- Kd [5]: 2.11 nM
- Kd [6]: 0.0149 nM
- Kd [7]: 0.0458 nM and 0.0782 nM
- T½ min [7]: 2.57 h and 2.05 h
- koff [7]: 7.48e-05 s⁻¹ and 9.39e-05 s⁻¹
- kon [7]: 1.63e+06 M⁻¹ s⁻¹ and 1.2e+06 M⁻¹ s⁻¹
- T½ min [8]: 8.54 h and 4.2 h
- koff [8]: 2.25e-05 s⁻¹ and 4.58e-05 s⁻¹
- kon [8]: 1.52e+06 M⁻¹ s⁻¹ and 1.66e+06 M⁻¹ s⁻¹
